The values that follow come from US20200362306A1 (published 2020).

This assay has as its target T1, human mesothelin (human, UniProt Q13421 296-580, limits assumed).
T1 construct: also called MSLN
Put plainly: method not stated; affinity given in parentheses for the binder.

T1 sequence (Q13421 other isoform, or with tags, fused parts or gaps limits assumed): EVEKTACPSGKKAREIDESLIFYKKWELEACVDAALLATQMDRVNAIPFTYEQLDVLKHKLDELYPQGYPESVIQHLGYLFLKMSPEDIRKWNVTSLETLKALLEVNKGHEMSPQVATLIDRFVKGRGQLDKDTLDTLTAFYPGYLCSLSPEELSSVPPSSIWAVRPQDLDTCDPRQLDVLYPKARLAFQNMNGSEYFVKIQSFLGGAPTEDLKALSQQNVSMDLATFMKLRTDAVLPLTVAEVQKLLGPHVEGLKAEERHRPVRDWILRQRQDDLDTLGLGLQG

B1: Single domain anti-MSLN binder 1 (SD1) (VHH)
VHH: EVQLVESGGGLVQPGGSLRLSCAASGGDWSANFMYWYRQAPGKQRELVARISGRGVVDYVESVKGRFTISRDNSKNTLYLQMNSLRAEDTAVYYCAVASYWGQGTLVTVSS
notes: also called anti-MSLN-SD1
As to B1, the Kd was found to be 0.025 µM.

B2: Single domain anti-MSLN binder 4 (SD4) (VHH)
VHH: EVQLVESGGGLVQPGGSLRLSCAASGSTSSINTMYWYRQAPGKERELVAFISSGGSTNVRDSVKGRFTISRDNSKNTLYLQMNSLRAEDTAVYYCNTYIPYGGTLHDFWGQGTLVTVSS
notes: also called anti-MSLN-SD4
Turning to B2, the equilibrium dissociation constant (Kd) stood at 0.006 µM.

The Kd is the free concentration of one partner at which half of the binding sites on the other are occupied at equilibrium, for simple one-to-one binding.
